Values quoted from earlier work in article PMC3773255.
pKd: −log10 of the molar value.

Molecular target: E-cadherin EC1-2 (UniProt P12830)

- pKd: 4.01
Substance: E-cadherin EC1-2 (from UniProt P12830)
